Test results: patent US20240166765A1 (ICONIC THERAPEUTICS, published 2024)
Numbering of substitutions follows the chain as printed.

Tests used:
[1] = target: T1, human Tissue Factor on MDA-MB-231 cells (human, UniProt P13726 33-295); assay: flow cytometry, MDA-MB-231 cells; binding of 20 nM FVII-Fc-Alexa488 (competitor) left at 250 nM Ab
T1 construct: also called TF; hTF

[2] = target: T1, human Tissue Factor on MDA-MB-231 cells; assay: flow cytometry, MDA-MB-231 cells; binding of 20 nM FVII-Fc-Alexa488 (competitor) left at 9.25 nM Ab
[3] = target: Relipidated TF (UniProt P13726 33-295, limits assumed); assay: cell-based or functional assay
[4] = target: T1, human Tissue Factor on MDA-MB-231 cells; assay: flow cytometry, MDA-MB-231 cells; binding of 20 nM FVII-Fc-Alexa488 (competitor) left at 28 nM Ab
[5] = target: T1, human Tissue Factor on MDA-MB-231 cells; assay: cell-based or functional assay
[6] = target: T1, human Tissue Factor on MDA-MB-231 cells; assay: flow cytometry, MDA-MB-231 cells; binding of 20 nM FVII-Fc-Alexa488 (competitor) left at 83 nM Ab
[7] = target: T2, human Tissue Factor (hTF), endogenously expressed on human TF-positive cells (human, UniProt P13726 33-295); assay: flow cytometry competition on A431 cells, 100 nM unlabelled antibody, competitor 20 nM 43Ea-Alexa488
T2 construct: also called CD142

[8] = target: T3, E. coli-derived TF ECD-His6 (Homo sapiens (Human), UniProt P13726 33-251); assay: protein ELISA, plate coated with E. coli-derived TF-His
T3 construct: The OmpA signal is not part of that entry; also called E.coli-derived TF protein; E. coli-derived TF-His

[9] = target: T2, human Tissue Factor (hTF), endogenously …; assay: flow cytometry competition on A431 cells, 100 nM unlabelled antibody, competitor 20 nM 25A-Alexa488
[10] = target: T4, Expi293-derived human TF ECD-His6 (TF-His) (human, UniProt P13726 33-251); assay: protein ELISA, plate coated with Expi293-derived TF-His
T4 construct: Glycosylated TF ECD-His6 made in Expi293 cells and coated on ELISA plates; also called Expi293-derived TF protein

[11] = target: T2, human Tissue Factor (hTF), endogenously …; assay: cell-based or functional assay
[12] = target: T5, Macaca mulatta TF on RF/6A cells (Macaca mulatta, UniProt P13726 33-294 (human entry)); assay: flow cytometry on Macaca mulatta RF/6A cells
T5 construct: also called TF-positive Macaca mulatta RF/6A cells; cynomolgus TF (cTF)
T5 chain: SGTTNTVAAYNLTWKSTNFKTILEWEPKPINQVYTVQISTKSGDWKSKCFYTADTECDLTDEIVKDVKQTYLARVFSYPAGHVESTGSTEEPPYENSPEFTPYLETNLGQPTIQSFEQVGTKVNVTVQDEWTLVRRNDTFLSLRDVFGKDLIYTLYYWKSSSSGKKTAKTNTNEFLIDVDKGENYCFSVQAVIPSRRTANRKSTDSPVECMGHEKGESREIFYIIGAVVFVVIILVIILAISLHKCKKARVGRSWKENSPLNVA

[13] = target: T1, human Tissue Factor on MDA-MB-231 cells; assay: cell-based or functional assay; remark: listed apart in the source

B1: 1F (antibody, V domains shown)
VH: EVQLLESGGGLVQPGGSLRLSCAASGFTFSDYAMGWVRQAPGKGLEWVSTISGSGGLTYYADSVKGRFTISRDNSKNTLYLQMNSLRAEDTAVYYCAKAPYGYYMDVWGKGTTVTVSS
VL: not shown
notes: Human anti-TF IgG1
- % FVIIa [1]: 6%
- % FVIIa [2]: 7%
- TGA % ETP, 10 nM Ab, 10 min pre-incubation [3]: 31%
- TGA % Peak IIa, 10 nM Ab, 10 min pre-incubation [3]: 10%
- TGA % Peak IIa, 50 nM Ab, 10 min pre-incubation [3]: 7%
- TGA % Peak IIa, 100 nM Ab, 10 min pre-incubation [3]: 7%
- TGA ETP, 10 nM Ab, 10 min pre-incubation [3]: 540 nM·min
- TGA Lag Time, 10 nM Ab, 10 min pre-incubation [3]: 18.8 min
- TGA Lag Time, 50 nM Ab, 10 min pre-incubation [3]: 27.6 min
- TGA Lag Time, 100 nM Ab, 10 min pre-incubation [3]: 30.3 min
- TGA Peak IIa, 10 nM Ab, 10 min pre-incubation [3]: 27 nM
- TGA Peak IIa, 50 nM Ab, 10 min pre-incubation [3]: 20 nM
- TGA Peak IIa, 100 nM Ab, 10 min pre-incubation [3]: 17 nM
- TGA ttPeak, 10 nM Ab, 10 min pre-incubation [3]: 28.6 min
- TGA ttPeak, 50 nM Ab, 10 min pre-incubation [3]: 38.9 min
- TGA ttPeak, 100 nM Ab, 10 min pre-incubation [3]: 42 min
- % FVIIa [4]: 7%
- % IL8, 2.56 nM Ab [5]: 18%
- % IL8, 6.4 nM Ab [5]: 3%
- % IL8, 16 nM Ab [5]: 2%
- % IL8, 40 nM Ab [5]: 2%
- % IL8, 100 nM Ab [5]: 2%
- % FVIIa [6]: 7%

B2: anti-TF antibody 1F (antibody, human IgG1, V domains shown)
VH: B1 VH
VL: not shown
notes: Human IgG1
- % 43Ea binding [7]: 77%
- EC50 [8]: 0.32 nM
- % 25A binding [9]: 95%
- EC50 [10]: 0.41 nM
- % GM-CSF, 2.56 nM antibody, MDA-MB-231 cells + FVIIa [11]: 27%
- % GM-CSF, 6.4 nM antibody, MDA-MB-231 cells + FVIIa [11]: 8%
- % GM-CSF, 16 nM antibody, MDA-MB-231 cells + FVIIa [11]: 6%
- % GM-CSF, 40 nM antibody, MDA-MB-231 cells + FVIIa [11]: 6%
- % GM-CSF, 100 nM antibody, MDA-MB-231 cells + FVIIa [11]: 6%
- EC50 [12]: 0.17 nM

B3: 1G (antibody, V domains shown)
VH: B1 VH with D31S, G35A, T50A
VL: not shown
notes: Human anti-TF IgG1
- % FVIIa [1]: 6%
- % FXa, 12.5 nM Ab [13]: 55%
- % FXa, 25 nM Ab [13]: 48%
- % FXa, 50 nM Ab [13]: 41%
- % FXa, 100 nM Ab [13]: 41%
- % FVIIa [2]: 7%
- % FVIIa [4]: 7%
- % IL8, 2.56 nM Ab [5]: 26%
- % IL8, 6.4 nM Ab [5]: 4%
- % IL8, 16 nM Ab [5]: 3%
- % IL8, 40 nM Ab [5]: 2%
- % IL8, 100 nM Ab [5]: 2%
- % FVIIa [6]: 7%

B4: anti-TF antibody 54E (antibody, human IgG1, V domains shown)
VH: QVQLVQSGAEVKKPGASVKVSCKASGYTFANYYMHWVRQAPGQGLEWMGIINPSGGITVYAQKFQGRVTMTRDTSTSTVYMELSSLRSEDTAVYYCARGGSKVAALAFDIWGQGTMVTVSS
VL: DIQMTQSPSSLSASVGDRVTITCQASQDISNSLNWYQQKPGKAPKLLIYDASNLETGVPSRFSGSRSGTDFTFTISSLQPEDIATYYCQQYNFHPLTFGGGTKVEIK
notes: Human IgG1
- % 43Ea binding [7]: 96%
- EC50 [8]: 0.38 nM
- % 25A binding [9]: 99%
- EC50 [10]: 0.96 nM
- % GM-CSF, 2.56 nM antibody, MDA-MB-231 cells + FVIIa [11]: 38%
- % GM-CSF, 6.4 nM antibody, MDA-MB-231 cells + FVIIa [11]: 10%
- % GM-CSF, 16 nM antibody, MDA-MB-231 cells + FVIIa [11]: 5%
- % GM-CSF, 40 nM antibody, MDA-MB-231 cells + FVIIa [11]: 5%
- % GM-CSF, 100 nM antibody, MDA-MB-231 cells + FVIIa [11]: 5%
- EC50 [12]: 1.28 nM

B5: anti-TF antibody 25A (antibody, human IgG1, V domains shown)
VH: QVQLVQSGAEVKKPGASVKVSCKASGYTFDVYGISWVRQAPGQGLEWMGWIAPYNGNTNYAQKLQGRVTMTTDTSTSTAYMELRSLRSDDTAVYYCARDAGTYSPFGYGMDVWGQGTTVTVSS
VL: DIQMTQSPSTLSASVGDRVTITCRASQSISSWLAWYQQKPGKAPKLLIYKASSLESGVPSRFSGSGSGTEFTLTISSLQPDDFATYYCQQFQSLPPFTFGGGTKVEIK
notes: Human IgG1
- % 43Ea binding [7]: 1%
- EC50 [8]: 0.35 nM
- % 25A binding [9]: 3%
- EC50 [10]: 0.54 nM
- % GM-CSF, 2.56 nM antibody, MDA-MB-231 cells + FVIIa [11]: 57%
- % GM-CSF, 6.4 nM antibody, MDA-MB-231 cells + FVIIa [11]: 24%
- % GM-CSF, 16 nM antibody, MDA-MB-231 cells + FVIIa [11]: 22%
- % GM-CSF, 40 nM antibody, MDA-MB-231 cells + FVIIa [11]: 19%
- % GM-CSF, 100 nM antibody, MDA-MB-231 cells + FVIIa [11]: 22%
- EC50 [12]: 0.43 nM

B6: anti-TF antibody 25A3 (antibody, human IgG1, kappa, V domains shown)
VH: B5 VH with N55S
VL: DIQMTQSPSTLSASVGDRVTITCQASQSINNWLAWYQQKPGKAPKLLIYKAYNLESGVPSRFSGSGSGTEFTLTISSLQPDDFATYYCQLFQSLPPFTFGGGTKVEIKR
notes: Human IgG1
- EC50 [8]: 0.36 nM
- EC50 [10]: 0.47 nM
- EC50 [12]: 0.27 nM

B7: anti-TF antibody 25G1 (antibody, human IgG1, kappa, V domains shown)
VH: B5 VH with D30R, V31S, I51V, N55S, F106Y
VL: B6 VL with Q24R, Q27H, N30D, N31S, Y52S, N53Y
notes: Human IgG1
- EC50 [8]: 0.31 nM
- EC50 [10]: 0.42 nM
- % GM-CSF, 2.56 nM antibody, MDA-MB-231 cells + FVIIa [11]: 48%
- EC50 [12]: 0.27 nM

B8: anti-TF antibody 29E (antibody, human IgG1, V domains shown)
VH: QVQLVESGGGVVQPGRSLRLSCAASGFTFRSYGMHWVRQAPGKGLEWVAVITYDGINKYYADSVEGRFTISRDNSKNTLYLQMNSLRAEDTAVYYCARDGVYYGVYDYWGQGTLVTVSS
VL: not shown
notes: Human IgG1
- % 43Ea binding [7]: 85%
- EC50 [8]: 0.68 nM
- % 25A binding [9]: 96%
- EC50 [10]: 0.98 nM
- % GM-CSF, 2.56 nM antibody, MDA-MB-231 cells + FVIIa [11]: 33%
- % GM-CSF, 6.4 nM antibody, MDA-MB-231 cells + FVIIa [11]: 9%
- % GM-CSF, 16 nM antibody, MDA-MB-231 cells + FVIIa [11]: 5%
- % GM-CSF, 40 nM antibody, MDA-MB-231 cells + FVIIa [11]: 6%
- % GM-CSF, 100 nM antibody, MDA-MB-231 cells + FVIIa [11]: 6%
- EC50 [12]: 0.53 nM

B9: 39A (antibody, V domains shown)
VH: QVQLVQSGAEVKKPGSSVKVSCKASGGTFSSNAIGWVRQAPGQGLEWMGSIIPIIGFANYAQKFQGRVTITADESTSTAYMELSSLRSEDTAVYYCARDSGYYYGASSFGMDVWGQGTTVTVSS
VL: EIVMTQSPATLSVSPGERATLSCRASQSVSSNLAWYQQKPGQAPRLLIYGASTRATGIPARFSGSGSGTEFTLTISSLQSEDFAVYYCEQYNNLPLTFGGGTKVEIK
notes: Human anti-TF IgG1
- % FVIIa [1]: 2%
- % FVIIa [2]: 2%
- TGA % ETP, 10 nM Ab, 10 min pre-incubation [3]: 28%
- TGA % ETP, 50 nM Ab, 10 min pre-incubation [3]: 20%
- TGA % Peak IIa, 10 nM Ab, 10 min pre-incubation [3]: 9%
- TGA % Peak IIa, 50 nM Ab, 10 min pre-incubation [3]: 7%
- TGA % Peak IIa, 100 nM Ab, 10 min pre-incubation [3]: 7%
- TGA ETP, 10 nM Ab, 10 min pre-incubation [3]: 482 nM·min
- TGA ETP, 50 nM Ab, 10 min pre-incubation [3]: 346 nM·min
- TGA Lag Time, 10 nM Ab, 10 min pre-incubation [3]: 20.8 min
- TGA Lag Time, 50 nM Ab, 10 min pre-incubation [3]: 28.4 min
- TGA Lag Time, 100 nM Ab, 10 min pre-incubation [3]: 28 min
- TGA Peak IIa, 10 nM Ab, 10 min pre-incubation [3]: 25 nM
- TGA Peak IIa, 50 nM Ab, 10 min pre-incubation [3]: 17 nM
- TGA Peak IIa, 100 nM Ab, 10 min pre-incubation [3]: 17 nM
- TGA ttPeak, 10 nM Ab, 10 min pre-incubation [3]: 30.7 min
- TGA ttPeak, 50 nM Ab, 10 min pre-incubation [3]: 38.9 min
- TGA ttPeak, 100 nM Ab, 10 min pre-incubation [3]: 40.2 min
- % FVIIa [4]: 2%
- % IL8, 2.56 nM Ab [5]: 52%
- % IL8, 6.4 nM Ab [5]: 6%
- % IL8, 16 nM Ab [5]: 2%
- % IL8, 40 nM Ab [5]: 2%
- % IL8, 100 nM Ab [5]: 3%
- % FVIIa [6]: 2%

B10: anti-TF antibody 39A (antibody, human IgG1, V domains shown)
VH: B9 VH
VL: B9 VL
notes: Human IgG1
- EC50 [8]: 0.34 nM
- % 25A binding [9]: 99%
- EC50 [10]: 0.45 nM
- % GM-CSF, 2.56 nM antibody, MDA-MB-231 cells + FVIIa [11]: 42%
- % GM-CSF, 6.4 nM antibody, MDA-MB-231 cells + FVIIa [11]: 8%
- % GM-CSF, 16 nM antibody, MDA-MB-231 cells + FVIIa [11]: 5%
- % GM-CSF, 40 nM antibody, MDA-MB-231 cells + FVIIa [11]: 5%
- % GM-CSF, 100 nM antibody, MDA-MB-231 cells + FVIIa [11]: 7%
- EC50 [12]: 0.27 nM
